This passage reports IC50 results from US20040170644A1.

A word on the IC50: it is the concentration needed to halve the response being measured.

Test [1] concerns the target T1, HLA-DR15 molecule (DRB1*1501) (human).
T1 chain 1: not shown
T1 chain 2: not shown
The test is described as follows: competition ELISA vs biotin-A3 152-166. (In general: ELISA stands for enzyme-linked immunosorbent assay.)

The target of test [2] is T2, HLA-DR1 molecule (DRB1*0101) (human).
T2 chain 1: not shown
T2 chain 2: not shown
The test is described as follows: competition ELISA vs biotin-HA 306-318.

Test [3] has as its target T3, HLA-DR11 molecule (DRB1*1101) (human).
T3 chain 1: not shown
T3 chain 2: not shown
The test is described as follows: competition ELISA vs biotin-HA 306-318.

Test [4] has as its target T4, HLA-DRB5*0101 molecule (human).
T4 chain 1: not shown
T4 chain 2: not shown
The test is described as follows: competition ELISA vs biotin-HA 306-318.

Test [5] concerns the target T5, HLA-DR7 molecule (DRB1*0701) (human).
T5 chain 1: not shown
T5 chain 2: not shown
Nature of the test: competition ELISA vs biotin-YKL.

Test [6] has as its target T6, HLA-DR4 molecule (DRB1*0401) (human).
T6 chain 1: not shown
T6 chain 2: not shown
The test is described as follows: competition ELISA vs biotin-HA 306-318.

Test [7] deals with T7, HLA-DRB3*0101 molecule (human).
T7 chain 1: not shown
T7 chain 2: not shown
The test is described as follows: competition ELISA vs biotin-Lol 191-210.

Test [8] concerns the target T8, HLA-DRB4*0101 molecule (human).
T8 chain 1: not shown
T8 chain 2: not shown
The test is described as follows: competition ELISA vs biotin-E2/E168.

Test [9] deals with T9, HLA-DR3 molecule (DRB1*0301) (human).
T9 chain 1: not shown
T9 chain 2: not shown
Nature of the test: competition ELISA vs biotin-MT 2-16.

Test [10] deals with T10, HLA-DR13 molecule (DRB1*1301) (human).
T10 chain 1: not shown
T10 chain 2: not shown
The test is described as follows: competition ELISA vs biotin-B1 21-36.

No end group written: not given here.

B1: E6 55-69 (peptide)
peptide: RDLCIVYRDGNPYAV
modifications: not checked
Consider B1, for which the IC50 came out at 55 nM in test [1], 1500 nM in test [2] and 250 nM in test [3].

B2: E6 130-144 (peptide)
peptide: QRFHNIRGRWTGRCM
modifications: not checked
For the molecule B2, the 50% inhibitory concentration (IC50) was determined as 4 nM in test [2], 115 nM in [3], 75 nM in test [4] and 950 nM in [5].

B3: E7 6-20 (peptide)
peptide: PTLHEYMLDLQPETT
modifications: not checked
On to B3, for which the IC50 in test [1] is 675 nM; in test [2], 750 nM; in test [3], 1500 nM; in [6], 175 nM; in test [7], 90 nM; in test [8], 200 nM.

B4: E6 24-38 (peptide)
peptide: TELQTTIHDIILECV
modifications: not checked
Consider B4, for which the IC50 in test [1] was determined as 950 nM; in test [2], 425 nM; in test [5], 1500 nM.

B5: E6 124-138 (peptide)
peptide: HLDKKQRFHNIRGR
modifications: not checked
As for B5, the 50% inhibitory concentration (IC50) in test [2] is 10 nM; in test [3], 475 nM; in test [4], 75 nM.

B6: E6 81-95 (peptide)
peptide: SEYRHYCYSLYGTTL
modifications: not checked
For the molecule B6, the half-maximal inhibitory concentration (IC50) in test [2] worked out at 10 nM; in test [3], 725 nM; in [4] it was 2500 nM.

B7: E7(60-74) (peptide)
peptide: KCDSTLRLCVQSTHV
modifications: not checked
As for B7, the IC50 was 5000 nM in test [2], 7000 nM in [3], 200 nM in [4] and 900 nM in test [5].

B8: E7 67-81 (peptide)
peptide: LCVQSTHVDIRTLED
modifications: not checked
Take B8: the IC50 came out at 950 nM in [1], 7000 nM in [2], 7500 nM in test [6] and 1500 nM in [5].

B9: E7(65-87) (peptide)
peptide: LRLCVQSTHVDIRTLEDLLMGTL
modifications: not checked
B9: the half-maximal inhibitory concentration (IC50) in [1] was 470 nM; in [2], 650 nM; in test [6], 650 nM; in test [9] it was 450 nM; in test [5], 900 nM; in [7], 850 nM.

B10: E6(45-67) (peptide)
peptide: LRREVYDFAFRDLCIVYRDGNPY
modifications: not checked
B10: the IC50 in test [1] was determined as 225 nM; in test [3], 125 nM; in test [4], 65 nM; in test [5], 2330 nM; in test [7], 2500 nM.

B11: B1 21-36 (nonbiotinylated) (peptide)
peptide: TERVRLVTRHIYNREE
modifications: not fully specified
In test [10], B11 had an IC50 of 330 nM. This lies in the sub-micromolar range.

B12: E6 97-111 (peptide)
peptide: QQYNKPLCDLLIRCI
modifications: not checked
In the case of B12, the IC50 in test [1] worked out at 4000 nM; in test [2], 575 nM; in test [4] it was 5500 nM; in test [6] it was 325 nM; in test [9] it was 1230 nM.

B13: E6 84-98 (peptide)
peptide: RHYCYSLYGTTLEQQ
modifications: not checked
B13: the half-maximal inhibitory concentration (IC50) came out at 7000 nM in [3], 900 nM in test [4] and 3250 nM in test [5].

B14: E7(21-40) (peptide)
peptide: DLYCYEQLNDSSEEEDEIDG
modifications: not checked
Regarding B14, the figures for the IC50 in [1], in [6] and in test [9] were 5300 nM, 1750 nM and 4600 nM, respectively.

B15: E6(121-140) (peptide)
peptide: EKQRHLDKKQRFHNIRGRWT
modifications: not checked
Take B15: the IC50 in test [10] came out at 1130 nM; in [2], 125 nM; in test [3], 350 nM; in test [4] it was 85 nM; in test [5], 200 nM.

B16: E6 89-103 (peptide)
peptide: SLYGTTLEQQYNKPL
modifications: not checked
Turning to B16, the half-inhibitory concentration (IC50) was determined as 53 nM in [1]; 125 nM in test [2]; 200 nM in [4]; 5000 nM in test [6]; 1500 nM in test [5].

B17: E6 76-90 (peptide)
peptide: FYSKISEYRHYCYSL
modifications: not checked
For B17, the half-inhibitory concentration (IC50) in test [10] is 225 nM; in [2], 125 nM; in test [4], 1050 nM.

B18: E6(14-34) (peptide)
peptide: ERPRKLPQLCTELQTTIHDII
modifications: not checked
As for B18, the 50% inhibitory concentration (IC50) in test [1] was determined as 800 nM; in test [2] it was 3500 nM; in [9] it was 550 nM; in test [5], 225 nM; in [7], 1450 nM.

B19: E7(7-27) (peptide)
peptide: TLHEYMLDLQPETTDLYCYEQ
modifications: not checked
On to B19, for which the concentration for half-maximal inhibition (IC50) in test [10] turned out to be 7500 nM; in test [1] it was 1770 nM; in [3], 600 nM; in test [6] it was 60 nM; in test [9] it was 560 nM; in [7], 8.5 nM. In addition, the IC50 in test [8] was 375 nM.

B20: E7 84-98 (peptide)
peptide: MGTLGIVCPICSQKP
modifications: not checked
Consider B20, for which the IC50 was 425 nM in [1], 90 nM in test [4], 1250 nM in test [5] and 1750 nM in test [8].

B21: E6(1-22) (peptide)
peptide: MHQKRTAMFQDPQERPRKLPQL
modifications: not checked
On to B21, for which the IC50 in [9] is 3500 nM. In other words, the single-digit micromolar range.

B22: E6(105-126) (peptide)
peptide: DLLIRCINCQKPLCPEEKQRHL
modifications: not checked
Regarding B22, the IC50 in [10] stood at 5000 nM; in [1] it was 4000 nM; in [2], 1750 nM; in test [3], 5000 nM; in test [4], 30 nM; in test [6] it was 3750 nM.

B23: E6 93-107 (peptide)
peptide: TTLEQQYNKPLCDLL
modifications: not checked
Consider B23, for which the half-maximal inhibitory concentration (IC50) in test [1] turned out to be 18 nM; in test [4], 325 nM; in test [5], 7750 nM.

B24: E6 42-56 (peptide)
peptide: QQLLRREVYDFAFRD
modifications: not checked
In the case of B24, the IC50 worked out at 375 nM in test [10], 3250 nM in test [1], 6000 nM in test [3] and 55 nM in [8].

B25: E7 65-79 (peptide)
peptide: LRLCVQSTHVDIRTL
modifications: not checked
With B25, the IC50 in test [2] is 750 nM; in [5], 600 nM.

B26: E7 77-91 (peptide)
peptide: RTLEDLLMGTLGIVC
modifications: not checked
With B26, the results for the IC50 in [4] and in [5] were 700 nM and 55 nM, respectively.

B27: E7 13-27 (peptide)
peptide: LDLQPETTDLYCYEQ
modifications: not checked
For the molecule B27, the IC50 was determined as 4000 nM in test [2], 3500 nM in [3], 4250 nM in test [6] and 3500 nM in test [9].

B28: E7(1-20) (peptide)
peptide: MHGDTPTLHEYMLDLQPETT
modifications: not checked
With B28, the IC50 in test [1] is 125 nM; in [2], 2500 nM; in test [3], 1750 nM; in [7], 35 nM; in [8] it was 4 nM.
